Tested on: peptide library, one residue held at a place counted from the S/T acceptor
Assay: relative phosphorylation of the sub-library (ratio to the mean residue at this position); higher = residue favoured
Settings: human
Procedure, shortened: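 Each biotinylated degenerate peptide sub-library fixed one residue at one position around a central Ser/Thr and was incubated with a purified recombinant kinase, a human or orthologue construct, in 384-well plates. The 90 min reactions, under kinase-specific conditions, contained 50 μM peptide and 50 μM ATP spiked with γ-32P-ATP. Phosphorylation was read by phosphorimaging spots on streptavidin membranes and quantifying them by densitometry. Relative sub-library phosphorylation expresses each value as a ratio to the mean residue at that position.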

CHEK1, construct: Full length, sequence (O14757 whole entry, looked up): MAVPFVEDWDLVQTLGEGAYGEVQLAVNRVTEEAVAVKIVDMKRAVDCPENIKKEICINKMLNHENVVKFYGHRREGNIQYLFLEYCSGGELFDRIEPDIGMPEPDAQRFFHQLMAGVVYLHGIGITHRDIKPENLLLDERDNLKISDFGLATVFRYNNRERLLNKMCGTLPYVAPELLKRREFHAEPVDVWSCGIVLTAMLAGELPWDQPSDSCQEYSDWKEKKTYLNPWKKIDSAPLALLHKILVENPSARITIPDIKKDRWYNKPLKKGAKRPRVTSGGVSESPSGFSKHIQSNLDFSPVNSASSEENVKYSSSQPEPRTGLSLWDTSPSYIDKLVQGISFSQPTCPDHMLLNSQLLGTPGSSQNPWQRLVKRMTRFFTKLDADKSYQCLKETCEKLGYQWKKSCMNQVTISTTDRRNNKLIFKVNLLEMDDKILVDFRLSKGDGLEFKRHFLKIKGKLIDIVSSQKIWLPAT
CSNK1G1, construct: aa21-end, sequence (Q9HCP0 21-422, looked up): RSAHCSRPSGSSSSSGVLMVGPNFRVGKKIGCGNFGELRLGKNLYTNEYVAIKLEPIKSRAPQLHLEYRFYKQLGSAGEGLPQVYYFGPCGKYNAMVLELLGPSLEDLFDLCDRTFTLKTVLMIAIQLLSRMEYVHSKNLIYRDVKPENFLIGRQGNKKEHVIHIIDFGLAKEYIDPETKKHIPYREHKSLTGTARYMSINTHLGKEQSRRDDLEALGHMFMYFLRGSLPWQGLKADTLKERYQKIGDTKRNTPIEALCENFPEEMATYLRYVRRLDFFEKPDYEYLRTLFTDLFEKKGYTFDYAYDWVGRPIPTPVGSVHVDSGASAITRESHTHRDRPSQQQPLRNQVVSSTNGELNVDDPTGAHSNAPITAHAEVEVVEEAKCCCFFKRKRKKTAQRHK
CDK9, construct: Full length, sequence (P50750 whole entry, looked up): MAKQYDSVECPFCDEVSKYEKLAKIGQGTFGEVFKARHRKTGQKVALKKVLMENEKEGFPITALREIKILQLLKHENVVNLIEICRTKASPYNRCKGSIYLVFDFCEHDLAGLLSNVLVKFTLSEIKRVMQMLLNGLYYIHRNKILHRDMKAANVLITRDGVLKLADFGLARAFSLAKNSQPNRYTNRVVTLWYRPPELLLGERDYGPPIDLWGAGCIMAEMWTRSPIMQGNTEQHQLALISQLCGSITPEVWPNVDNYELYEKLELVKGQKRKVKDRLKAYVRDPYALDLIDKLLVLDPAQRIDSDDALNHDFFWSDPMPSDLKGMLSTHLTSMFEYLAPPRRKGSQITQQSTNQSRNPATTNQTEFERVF
CDK16, construct: aa107-end, sequence (Q00536 107-496, looked up): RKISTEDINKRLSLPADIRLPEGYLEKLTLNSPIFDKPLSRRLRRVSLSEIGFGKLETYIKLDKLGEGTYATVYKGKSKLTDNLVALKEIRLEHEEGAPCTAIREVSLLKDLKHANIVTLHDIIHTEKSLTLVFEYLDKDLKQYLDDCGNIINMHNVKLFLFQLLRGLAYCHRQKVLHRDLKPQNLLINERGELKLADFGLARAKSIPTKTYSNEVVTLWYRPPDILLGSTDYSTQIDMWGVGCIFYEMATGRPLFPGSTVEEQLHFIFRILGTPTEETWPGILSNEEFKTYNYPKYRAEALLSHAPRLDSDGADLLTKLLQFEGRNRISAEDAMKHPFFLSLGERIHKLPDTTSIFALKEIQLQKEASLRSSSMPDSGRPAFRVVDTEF

CDK9, construct: Full length (from UniProt P50750)
relative phosphorylation
Settings | at +1 | at +2 | at +3 | at +4 | at -1 | at -2 | at -3 | at -4 | at -5
A fixed | 0.39 | 0.956 | 0.702 | 0.931 | 1.2 | 1.52 | 1.17 | 1.19 | 1.13
D fixed | 0.167 | 0.493 | 0.429 | 0.79 | 0.328 | 0.322 | 0.339 | 0.607 | 0.572
E fixed | 0.212 | 0.478 | 0.409 | 0.913 | 0.34 | 0.392 | 0.382 | 0.661 | 0.514
F fixed | 0.398 | 0.953 | 0.593 | 1.01 | 0.974 | 0.919 | 1.01 | 1.13 | 1.25
G fixed | 0.943 | 1.35 | 0.85 | 1.13 | 1.34 | 1.12 | 1.82 | 1.14 | 1.01
H fixed | 0.286 | 1.57 | 3 | 1.45 | 1.02 | 0.973 | 1.12 | 1.13 | 1.27
I fixed | 0.306 | 0.708 | 0.547 | 0.871 | 0.353 | 0.956 | 0.902 | 0.868 | 0.858
K fixed | 0.328 | 1.24 | 0.828 | 0.752 | 1.51 | 0.91 | 0.939 | 1.1 | 1.09
L fixed | 0.404 | 0.736 | 0.453 | 0.791 | 0.98 | 0.95 | 0.868 | 0.914 | 0.82
M fixed | 0.347 | 0.769 | 0.478 | 0.893 | 1.75 | 1.53 | 0.963 | 0.969 | 0.853
N fixed | 0.217 | 1.18 | 0.79 | 0.983 | 0.82 | 0.805 | 0.896 | 0.895 | 0.876
P fixed | 11.4 | 0.652 | 1.38 | 0.984 | 1.14 | 1.32 | 1.15 | 1.06 | 1.01
Q fixed | 0.285 | 0.928 | 0.987 | 0.928 | 1.08 | 0.796 | 0.813 | 0.804 | 0.833
R fixed | 0.327 | 2.31 | 2.45 | 0.973 | 1.78 | 1.23 | 1.68 | 1.18 | 1.23
V fixed | 0.388 | 0.734 | 0.545 | 0.84 | 0.559 | 0.821 | 0.939 | 0.855 | 0.892
W fixed | 0.331 | 0.95 | 1.28 | 1.57 | 0.836 | 1.32 | 0.958 | 1.31 | 1.46
Y fixed | 0.315 | 0.999 | 1.28 | 1.19 | 0.992 | 1.12 | 1.05 | 1.19 | 1.33
pThr fixed | 0.374 | 0.622 | 0.475 | 0.979 | 0.284 | 0.487 | 0.615 | 0.723 | 0.719
pTyr fixed | 0.379 | 0.536 | 1.18 | 1.2 | 0.558 | 0.526 | 0.607 | 0.838 | 0.714

CDK16, construct: aa107-end (from UniProt Q00536)
relative phosphorylation
Settings | at +1 | at +2 | at +3 | at +4 | at -1 | at -2 | at -3 | at -4 | at -5
A fixed | 0.223 | 0.675 | 0.758 | 0.72 | 1.18 | 1.28 | 1.24 | 0.912 | 1.03
D fixed | 0.152 | 0.587 | 0.335 | 0.457 | 0.539 | 0.439 | 0.692 | 0.863 | 0.745
E fixed | 0.15 | 0.385 | 0.316 | 0.305 | 0.491 | 0.464 | 0.839 | 0.817 | 0.699
F fixed | 0.155 | 0.368 | 1.03 | 0.593 | 0.499 | 0.512 | 0.478 | 0.455 | 0.542
G fixed | 0.947 | 0.572 | 0.702 | 1.38 | 2.12 | 0.887 | 2.02 | 0.951 | 0.854
H fixed | 0.218 | 1.25 | 0.82 | 1.16 | 0.92 | 0.797 | 1.27 | 1.08 | 1.68
I fixed | 0.147 | 0.455 | 0.842 | 0.588 | 0.26 | 0.834 | 0.433 | 0.852 | 0.625
K fixed | 0.253 | 3.26 | 0.872 | 2.54 | 1.37 | 0.617 | 0.915 | 2.31 | 2.51
L fixed | 0.177 | 1.05 | 2.59 | 0.679 | 0.582 | 1.18 | 0.93 | 1.15 | 1.16
M fixed | 0.168 | 0.663 | 1.97 | 0.757 | 0.722 | 1.12 | 0.666 | 0.755 | 0.722
N fixed | 0.225 | 1.17 | 0.964 | 1.09 | 1.16 | 1.08 | 1.19 | 1.78 | 1.42
P fixed | 13.1 | 0.696 | 1.45 | 0.842 | 1.77 | 3.72 | 1.93 | 1.11 | 0.908
Q fixed | 0.246 | 1.26 | 0.973 | 1.06 | 1.28 | 0.988 | 1.06 | 1.01 | 0.95
R fixed | 0.23 | 2.63 | 0.996 | 2.89 | 1.67 | 0.715 | 0.973 | 1.02 | 1.08
V fixed | 0.177 | 0.676 | 0.937 | 0.66 | 0.399 | 0.941 | 0.643 | 0.598 | 0.657
W fixed | 0.221 | 0.702 | 0.877 | 0.687 | 0.991 | 0.83 | 0.85 | 0.675 | 0.902
Y fixed | 0.17 | 0.608 | 0.564 | 0.587 | 1.04 | 0.588 | 0.871 | 0.653 | 0.509
pThr fixed | 0.435 | 0.648 | 0.998 | 0.332 | 0.397 | 0.764 | 0.87 | 0.767 | 0.657
pTyr fixed | 0.801 | 0.513 | 1.11 | 0.42 | 0.49 | 0.698 | 0.925 | 0.584 | 0.723

CHEK1, construct: Full length (from UniProt O14757)
relative phosphorylation
Settings | at +1 | at +2 | at +3 | at +4 | at -1 | at -2 | at -3 | at -4 | at -5
A fixed | 0.806 | 1.04 | 0.824 | 0.997 | 0.779 | 1.18 | 0.579 | 1.17 | 0.706
D fixed | 1.03 | 1.19 | 1.4 | 1.19 | 1.06 | 0.387 | 0.353 | 0.714 | 0.379
E fixed | 0.981 | 0.932 | 1.01 | 0.882 | 0.709 | 0.977 | 0.853 | 1.15 | 0.261
F fixed | 1.43 | 0.719 | 0.731 | 0.754 | 0.637 | 1.16 | 0.39 | 0.817 | 2.06
G fixed | 1.21 | 0.978 | 1.16 | 1.18 | 0.915 | 0.619 | 0.685 | 0.811 | 0.331
H fixed | 1.21 | 1.38 | 1.2 | 1.17 | 1.27 | 2.01 | 2.02 | 1.14 | 0.51
I fixed | 0.801 | 0.808 | 0.832 | 0.968 | 0.396 | 0.56 | 0.253 | 0.952 | 2.21
K fixed | 0.614 | 0.531 | 0.588 | 0.687 | 1.54 | 0.887 | 2.36 | 1.45 | 0.405
L fixed | 0.98 | 0.756 | 0.908 | 1.18 | 0.805 | 0.738 | 0.281 | 0.919 | 2.9
M fixed | 1.57 | 0.935 | 0.985 | 1.06 | 0.901 | 1.14 | 0.625 | 1.26 | 1.98
N fixed | 1.65 | 1.82 | 1.47 | 1.23 | 1.68 | 1.42 | 0.992 | 0.9 | 0.361
P fixed | 0.429 | 0.973 | 1.2 | 1.57 | 1.84 | 0.547 | 1.37 | 0.458 | 0.49
Q fixed | 1.19 | 1.36 | 1.15 | 1.12 | 1.36 | 1.17 | 0.995 | 1.07 | 0.422
R fixed | 0.599 | 0.692 | 0.57 | 0.547 | 0.98 | 0.895 | 3.45 | 1.41 | 0.759
V fixed | 0.686 | 0.96 | 0.802 | 0.713 | 0.48 | 0.701 | 0.323 | 1.05 | 1.25
W fixed | 0.94 | 1.01 | 1.18 | 0.874 | 0.682 | 1.2 | 0.857 | 0.829 | 1.32
Y fixed | 0.869 | 0.921 | 0.995 | 0.886 | 0.963 | 1.39 | 0.617 | 0.902 | 0.661
pThr fixed | 0.831 | 0.822 | 0.733 | 0.892 | 0.188 | 0.139 | 0.198 | 0.311 | 0.164
pTyr fixed | 0.821 | 1.17 | 0.94 | 0.812 | 0.495 | 0.382 | 0.193 | 0.343 | 0.443

CSNK1G1, construct: aa21-end (from UniProt Q9HCP0)
relative phosphorylation
Settings | at +1 | at +2 | at +3 | at +4 | at -1 | at -2 | at -3 | at -4 | at -5
A fixed | 0.872 | 1.05 | 1.29 | 1.13 | 1.38 | 2.1 | 0.918 | 1.23 | 1.22
D fixed | 0.317 | 0.551 | 0.757 | 0.828 | 0.406 | 1 | 5.14 | 1.25 | 1.11
E fixed | 0.4 | 0.293 | 0.823 | 0.662 | 0.47 | 1.13 | 2.32 | 1.12 | 0.901
F fixed | 0.853 | 1.21 | 1.31 | 1.45 | 0.713 | 0.511 | 0.471 | 0.984 | 0.913
G fixed | 0.611 | 1.02 | 1.62 | 1.19 | 1.53 | 1.19 | 0.734 | 1.07 | 1.04
H fixed | 0.731 | 1.71 | 1.03 | 0.976 | 0.983 | 0.714 | 0.633 | 0.918 | 1.1
I fixed | 2.43 | 1.06 | 0.755 | 0.921 | 0.927 | 1.11 | 0.42 | 0.799 | 0.734
K fixed | 0.461 | 1.03 | 0.731 | 0.812 | 1.27 | 0.674 | 0.644 | 0.981 | 1.44
L fixed | 2.32 | 0.922 | 0.962 | 0.894 | 1.06 | 0.949 | 0.482 | 0.81 | 0.892
M fixed | 1.77 | 0.951 | 0.957 | 0.943 | 1.01 | 0.63 | 0.389 | 0.796 | 0.801
N fixed | 0.619 | 0.976 | 0.842 | 0.786 | 0.597 | 1.53 | 0.758 | 0.877 | 1.02
P fixed | 0.326 | 0.369 | 0.774 | 1.15 | 1.36 | 1.08 | 0.646 | 1 | 0.87
Q fixed | 0.685 | 0.798 | 0.732 | 0.839 | 0.886 | 1.08 | 0.546 | 0.76 | 0.798
R fixed | 0.771 | 1.01 | 0.884 | 0.713 | 1.28 | 0.919 | 1.07 | 0.814 | 1.05
V fixed | 2.03 | 1.01 | 0.76 | 0.947 | 0.978 | 1.26 | 0.582 | 0.763 | 0.875
W fixed | 0.861 | 1.25 | 1.4 | 1.35 | 1.25 | 0.608 | 0.636 | 1.72 | 1.24
Y fixed | 0.935 | 1.79 | 1.37 | 1.41 | 0.898 | 0.511 | 0.604 | 1.11 | 1
pThr fixed | 0.575 | 0.524 | 0.83 | 1.73 | 0.534 | 3.07 | 34 | 4.36 | 1.61
pTyr fixed | 0.734 | 3.17 | 4.7 | 1.83 | 0.64 | 2.15 | 5.42 | 3.67 | 2.21

From the supplement of paper PMC9876800
